No end group written: not given here.
Legend:
[1] = biological target: hemagglutinin (HA) of influenza virus type A subtype H1 A/PR/8/34 (H1N1), ether extract (influenza virus type A, A/PR/8/34 (H1N1)), P03452; test: phage ELISA, HA immobilised on plate, normalised to A-1 = 1
[2] = biological target: hemagglutinin (HA) of influenza virus type A subtype H3 A/Wuhan/359/95 (H3N2), ether extract (influenza virus type A, A/Wuhan/359/95 (H3N2)); test: as above
[3] = biological target: hemagglutinin H3 (GM3 inhibition ELISA, strain not stated)
[4] = biological target: hemagglutinin (HA) of influenza virus type A subtype H3 A/Wuhan/359/95 (H3N2), ether extract (influenza virus type A, A/Wuhan/359/95 (H3N2))

In the case of ARLPRTMVHPKPAQP (modifications not checked) [filamentous phage fd presenting peptide s-2 (SEQ ID NO: 3)], the fold binding activity relative to A-1 [1] is reported as 3 fold and the fold binding activity relative to A-1 [2] is reported as 3 fold.

ARLSPTMVHPNGAQP-NH2 [A-1 peptide, chemosynthesized, …-NH2] showed an IC50 [3] of 1900 µM.

In the case of ARLPPTMVRPNGPQP-NH2 [e-1 peptide, chemosynthesized, …-NH2], the fold binding relative to A-1 [4] is reported as 1.2 fold.

Work on ARLPRTMVHPKPAQP-NH2 [s-2 peptide, chemosynthesized, …-NH2] yielded a fold binding relative to A-1 [4] of 2.1 fold.

— patent US20100119588A1
